Measurements from the nanobody polyreactivity screen of Harvey et al. (2022).

experiment: yeast display, Sf9 membrane polyspecificity reagent, FACS + sequencing; frameworks hold sequencing errors
Outline: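 Galactose-induced (36–48 hours) yeast carrying a synthetic nanobody display library were exposed to 10% biotinylated, detergent-solubilized Sf9 membrane reagent at 4 °C for 1 hour. FACS followed streptavidin microbead enrichment, using low and high (top ~1%) gates for expression (anti-HA) and reagent binding (streptavidin). Colony PCR, MiSeq 2 × 250 sequencing and CDR-length filtering followed. Labels for polyreactivity reflect the gate of origin.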

Sequence | polyreactivity (PSR sort gate)
QVQLVESGGGLVQGGGSLRLSCAASGSIFSTYVMGWYRQGPGKERELVAAISRRGGSTYYADSVKGRFTISRDNAKNTVYLQMNSLNPADTAVYYCAADGTVGRRDYWGQGTQVTVSS | high polyreactivity
QVQLVESGGGLVQGGGSLRLSCAASGSIFYPYAMGWYRQAPGKERELVARITSSTGSTYYADSVKGRCTISRATAKNTVYLQMTSLKPEDTAVYYCNARRQRNKSYNYWGQGTQVTVSS | high polyreactivity
QVQLVESGGGLVQGGGSLRLSCAASGSISDVYAMGWYRQAPGKERELVAANTSGASTYYADSVKGRFTISRDNAKNTVYLQMNSLKPEDTAVYYCAADSDSQWGMDYWGQGTQVTVSS | low polyreactivity
QVQLVESGGGLVQGGGSLRLSCAASGSNLYKNPMGWYRPAPGKERELVASITYSGGRTNYADSVKGRFTISRDTAKNTVYLQMNSLKPEDTSVYYCPAAYVYYNPAYRYAPTAVDYDYWGQGTQVTVSS | low polyreactivity
QVQLVESGGGLVQGGGSLRLSCAASGSTFWANAMGWYRQATGKERELVAGITWNAGSTYYADSVKGRFTISRDNAKNPVYLQMNRLKPEDTAVFYCAASYHFQGWGPGYNSWGQGTQVTVSS | low polyreactivity
QVQLVESGGGLVQGGGSLRLSCASSGSIFGWNAMGWYRPAPGKERELVAAISFSGSCTFYADSVKGRFTISRDNAKNTVYLQMNSLKPEDTAVYDCAAEPYSVYEYYYWGQGTQVTGSS | high polyreactivity
QVQLVESGGGLVQPGGSLRLSCAASGGTFYRYAMGWYIQAPGKERELVAAISSRGGSTYYADSVKGRYTISRDNAKNTVYLQMNSLKPEDTAVYYCAALFYLTQWQYDYWGQGTQVTVSS | high polyreactivity
QVQLVESGGGLVQPGGSLRLSCAASGIISFYNAMGWYRPAPGKERELVAAITWSVGSTYYADSVKGRFTISRDNAKNTVYLQMNSLKPEDTAVYYCNVSPGFWRSIPLYYNLRYGYWGQGTQVTVSS | low polyreactivity
QVQLVESGGGLVQPGGSLRLSCAASGLTISYYAMGWYRQAPGKEREFVAAITSRGGDTYYADSVKGRFTISRDNAKNTVYLQMNSLKPEDTAVYYCAVRPRYYGTYRYYYWGQGTQVTVSS | high polyreactivity
QVQLVESGGGLVQPGGSLRLSCAASGRILYYHAMAWYRQAPGKERELVARISSGGSTNYADSVKGRFTISRDNAKNTVYLQMNSLKPEDTAVSYCAVAKGGLAWGVGRGGRYDYWGQGTQVTVSS | low polyreactivity
QVQLVESGGGLVQPGGSLRLSCAASGSIFGYNAMGWYRPAPGKERELVAVITRSDGSTYYADSVKGRFTISRDNAKNTVYLQMNSLKPEDTAVYYCNAETHVYYWGVVIYEYNYWGQGTQVTVSS | low polyreactivity
QVQLVESGGGLVQPGGSLRLSCAASGSIYTNAMGWYRQAPGKERELVAAISWSGGRTYYADSVKGRFTISRDNAKNTVYFQLNSLKPEDTAVYYCNTRGTRIASGHYYWGQGTQVTVSS | high polyreactivity
QVQLVESGGGLVQPGGSLRLSCAASGSTFWLYAMGWYRQAPGQERELVAAISARTGSTYYADSVKGRFTISRDNAKNTVYLQMNSLKPEDTAVYYCNVRYRGTPYGYWGQGTQVTVSS | low polyreactivity
QVQLVESGGGLVQPGRSLRLSCAASGFTFYIYAMGWYRQAPGKERELVAAISGRGSSTYYADSVKGRFTISRDNAKNSVYLQMNSQTPEDTAVYYCAAGKSKYGVRGDYWGQGTQVTVSS | high polyreactivity
QVQLVESGGGLVQPRGSLRLSCAASGGTFKFYAMGWYRQAPGKDRELVAAITSGGSTNYADSVKGRFTISRDNAKNTVYLLMNSLKPEDTALYYCNADFYQRYGVFSSRRYFYWGQGTQVTVSS | low polyreactivity
QVQLVESGGGLVQPVGSLRLSCAASGYTFPRYTMGWSRQAPGKERELVAAITSSGSTNYADSVKGRFTISRDNAKNTVYLQMNSLKPEDTAVYYCNKARIRTWSRGYDYWGQGTQLTVSS | high polyreactivity
QVQLVESGGGLVQSGGSLRLRCAASGRIFGGYAMGWYRQAPGKERELVAAISWRGGSTSYADSVKGRFTISRDNAKNTVYLQMNSLKPEDTAVYYCAKYWGHTYGSWGQGTQVTVSS | high polyreactivity
QVQLVESGGGLVQSGGSLRLSCAASGFTFSWYAMGSYRQAPGKERELVAAISWDGDSTYYADSVKGRCTISRDNAKNTVFLQMNSLKPEETAVYYCAADFSYYWDGYDYWGQGSQVTVSS | high polyreactivity
QVQLVESGGGLVQSGGSLRLSCAASGFTFYFNAMGWYRPAPGKERELVAAIRWSGGNTYYADSVKGRFTISRDNAKNTVYLQMNSLKPEDTAVYYCNKDPWHDTYSVKEYDYWGQGTQVTVSS | low polyreactivity
QVQLVESGGGLVQSGGSLRLSCAASGGSFTFYAMGWYRQAPGKERELVATINWSGGSTYYADSVKGRFTISRDNAKNTVYLQMNSLKPEDTAVYYCNAAWPYKSVEYWGQGTQVTVSS | low polyreactivity
QVQLVESGGGLVQSGGSLRLSCAASGGTFHKYDMGWYRQAPGKERELVAAITRSGGSTYYADSVKGRFTISRDNAKNTVYLQMNSLKPEDTAVYFCNAGKRGSTYYYWGQGTQVTVSS | high polyreactivity
QVQLVESGGGLVQSGGSLRLSCAASGIIFDSYAMGWYRQAPGKERELVAAISSRGASTYYADSVKGRFTISRDNAKYTVYLQMNSLKPEDTAVYYCNAVYYAYRYGSSYDWGQGTQVTVSS | high polyreactivity

Sequence | polyreactivity (PSR sort gate)
QVQLVESGGGLVQSGGSLRLSCAASGIIFEYYDMGWYRQAPGKEREFVAAIDSGGSTYYADSVKGRFTISRDNAKNTVYLQMNSLKPEDTAVYYCAASRPPNTSNTGYGSWGQGTQVTVSS | low polyreactivity
QVQLVESGGGLVQSGGSLRLSCAASGIIFSDYAMGWYRQAPGKERELVATITRSVRTSYADSVKGRFTISRDNAKNTVYLQMNSLKPEDTAVYYCNADVVGAVIAYDYWGQGTQVTVSS | low polyreactivity
QVQLVESGGGLVQSGGSLRLSCAASGITFYVYTMGWYRQAPGKERELVAAINGSGGSTNYADSVKGRFTISRDNAKNTVHLQMNSLKPEDTAVYYCAADWSLRLYDYWGQGTQVTVSS | low polyreactivity
QVQLVESGGGLVQSGGSLRLSCAASGITSHPYDMGWSRQAPGKERELVAVITSGGSTSYADSVKGRFTISRDNAKNTVYLQMNRLKPEDTAVYYCNADWFTPAQPWYRYFIRYDYWGQGTEVTVSS | low polyreactivity
QVQLVESGGGLVQSGGSLRLSCAASGRIFKLYAMGWYRQAPGKERELVAAITRTGTSTYYADSVKGRFTISRDNAKNTVYLQMNSLKPEDTAVYYCNKTTLLTVEYDYWGQGTQVTVSS | low polyreactivity
QVQLVESGGGLVQSGGSLRLSCAASGRIFYYNAMGWYRQAPGKERELVAAITSSSGSSTYYADSVKGRFTISRDNAKNTVYLQMNSLKPEDTAVYYCNAASLDRFFGYRYNDDDYWGQGTQVTVSS | low polyreactivity
QVQLVESGGGLVQSGGSLRLSCAASGRTFLTYVMGWYRPAPGKERELVAAITRGGRTNYAHSEKGRFTISRDNAKNTVDLQMTSLKPEDTAVYYCARDDTPRYDYWGQGTQVTVSS | low polyreactivity
QVQLVESGGGLVQSGGSLRLSCAASGSTFDPNTMGSYRQAPGKERELVATITSVDSTNYADSVKGRFTISRDNAMNTVYLQMNSLIPEDTAVYYCNAAYGGVFFYAYDYWGQGTQVTVSS | low polyreactivity
QVQLVESGGGLVQSGGSLRLSCAASGSTFKFYAMGWYRQAPGKEREFVAAITSSGDSTYYADSVKGRFTISRDNAKNTVYLQMNSLKPEDTAVYYCAARLRWRYSYDYWGQGTQVTVSS | high polyreactivity
QVQLVESGGGLVQSGGSLRLSCAASGSTFQSNAMGWYRQAPGKERELVATITQSGATTYYADSVKGRFTISRDNAKNTVYLQMNSLKPEDSAVYYCNVDTYQKRWFWLDLDGGYWGQGTQVTVSS | low polyreactivity
QVQLVESGGGLVQSGGSLRLSCAASGSTFSTYAMGWYRQAPGKERQLVAGITGSGGRTYYADSVKGRFTISRDNAKHTVYLQMNSMKPEDTGVYYCAASTRGYKWVGRDYDYWGQGTQVTVSS | high polyreactivity
QVQLVESGGGLVQSGGSLRLSCAASGSTFVWYAMGWYRQAPGKERELVAAITDSGDDTYYADSVKGRFTISRDNAKNTVYLQMNSLKAEDNAVYYCAVVAWSVPPYDYWGQGTQVTVSS | low polyreactivity
QVQLVESGGGLVQSGGSLRLSCAASGSTIPPNAMGWYRQAPGKERELVAGISYGGSTTYADSVKGRFTISRDNAKNTVYLQMNSLKPEDTAVYYCAADQPYWRDYDYWGQGTQVTVSS | low polyreactivity
QVQLVESGGGLVQSGGSLRLSCGASGLIYGPNSMGWYRQAPAKERELVAAITKSGDSTYYADSVKGRFTISRDNAKNTVYLQMNSLKPEDTAVYYCAAEWYPYPWGYGYWGQGTQVTVSS | low polyreactivity
QVQLVESGGGLVQSGVSLRLSCAASGITFYSIAIGWYRPATGKEMELVAANTRRGGSKLNADSVKGRFTNSRDNSKNTVYLQMNSLKPEDTAVYFCAADVPWWSYSDDYWGQGTKVTVSS | high polyreactivity
QVQLVESGGGLVQSGVSLRLSCAASGSIFDPYAMGWYRPAPGKERELVAAITSGGSTYYADSVKGRFTISRDNAKNTVYLQMNSLKPEDTAVYYCAKDFDIYYSKYDYWGQGTQVTVSS | low polyreactivity
QVQLVESGGGLVQSVGSLRLSCAASGFTFRWYAMGWYRQAPGKERELVAAITSRGGTTYYADSVKGRFTISRDNAKNTVYLQMNSLNPEDTAVYYCAARRAGRRGYYYWGQGTQVTVSS | high polyreactivity
QVQLVESGGGLVQTGGSLRLSCAASGFIFGPYVMGWYRQAPRKERELFAAISSDGSTTYADSVKGRFTISRDNEKNTVYLQMNSLKPEDTAVYYFAAEDQQNGYDYWGQGTQVTVSS | low polyreactivity
QVQLVESGGGLVQTGGSLRLSCAASGRIFNGNAMGWYRQAPGKERELVAAITKSGGNTYYADSVKGRFTISRDNAKNTVYLEMNSLKQEDTAVYYCNAYYSLGAWKGAYDYWGQGTQVTVSS | low polyreactivity
QVQLVESGGGLVQTGGSLRLSCAASGSTFNQYDMGWYRQAPGKERELVAAINRDGSTYYADSVKGRFTISRDNAKNTVYLQMNSLNPEDTAVYYWNAVGWYTYFYGSRKYNSWGQGTEVTVSS | low polyreactivity
QVQLVESGGGLVQVGGSLRLSCAASGITFSYYSMGWYRPAPGKERELVAAISQRGGSTYYADSVKGRFTISRDNAKNTVYLQMNSLKPEDTAVYYCAAAYRGANYGYGFDYWGQGTQVTVSS | high polyreactivity
